# Data: patent US20200164038A1, “MODIFIED NUCLEOSIDE, NUCLEOTIDE, AND NUCLEIC ACID COMPOSITIONS” (ModernaTX, Inc., priority 2011, published 2020)
# B1: G-CSF: human G-CSF mRNA, SEQ ID NO: 6, polyA about 160 nt, Cap1, fully modified with 5-methylcytosine and pseudouridine (nucleic acid, listed as Homo sapiens)
# chain: GGGAAAUAAGAGAGAAAAGAAGAGUAAGAAGAAAUAUAAGAGCCACCAUGGCCGGUCCCGCGACCCAAAGCCCCAUGAAACUUAUGGCCCUGCAGUUGCUGCUUUGGCACUCGGCCCUCUGGACAGUCCAAGAAGCGACUCCUCUCGGACCUGCCUCAUCGUUGCCGCAGUCAUUCCUUUUGAAGUGUCUGGAGCAGGUGCGAAAGAUUCAGGGCGAUGGAGCCGCACUCCAAGAGAAGCUCUGCGCGACAUACAAACUUUGCCAUCCCGAGGAGCUCGUACUGCUCGGGCACAGCUUGGGGAUUCCCUGGGCUCCUCUCUCGUCCUGUCCGUCGCAGGCUUUGCAGUUGGCAGGGUGCCUUUCCCAGCUCCACUCCGGUUUGUUCUUGUAUCAGGGACUGCUGCAAGCCCUUGAGGGAAUCUCGCCAGAAUUGGGCCCGACGCUGGACACGUUGCAGCUCGACGUGGCGGAUUUCGCAACAACCAUCUGGCAGCAGAUGGAGGAACUGGGGAUGGCACCCGCGCUGCAGCCCACGCAGGGGGCAAUGCCGGCCUUUGCGUCCGCGUUUCAGCGCAGGGCGGGUGGAGUCCUCGUAGCGAGCCACCUUCAAUCAUUUUUGGAAGUCUCGUACCGGGUGCUGAGACAUCUUGCGCAGCCGUGAAGCGCUGCCUUCUGCGGGGCUUGCCUUCUGGCCAUGCCCUUCUUCUCUCCCUUGCACCUGUACCUCUUGGUCUUUGAAUAAAGCCUGAGUAGGAAG
# modifications: Cap1; polyA; 5-methylcytosine, pseudouridine
# How the values were obtained:
# [1] = Non-human primate in vivo study, serum G-CSF or EPO by ELISA; parameters: species or system cynomolgus monkey; conditions: for Female NHP Serum Concentration / Male NHP Serum Concentration: G-CSF LNP, 0.05 mg/kg IV
# Description: Formulations, listed in Table 31, were characterized by particle size, zeta potential, and encapsulation.
# LNP formulations, shown in Table 31 (above), were administered to non-human primates (NHP) (cynomolgus monkey) (n=2) as a bolus intravenous injection (IV) over approximately 30 seconds using a hypodermic needle, which may be attached to a syringe/abbocath or butterfly if needed. The NHP were administered a single modified mRNA IV dose of 0.05 mg/kg of EPO or G-CSF or 0.005 mg/kg of EPO in a dose volume of 0.5 mL/kg. The NHPs were bled 5-6 days before dosing with the modified mRNA LNP formulations to determine protein expression in the serum and a baseline complete blood count. After administration with the modified mRNA formulation the NHP were bled at 8, 24, 48 and 72 hours to determined protein expression. At 24 and 72 hours after administration the complete blood count of the NHP was also determined. Protein expression of G-CSF and EPO was determined by ELISA. Urine from the NHPs was collected over the course of the entire experiment and analyzed to evaluate clinical safety. Samples were collected from the NHPs after they were administered with G-CSF or EPO modified mRNA formulations to determine protein expression using ELISA. Clinical chemistry, hematology, urinalysis and cytokines of the non-human primates were also analyzed.
# [2] = test system: Neutrophil and reticulocyte count; test: Non-human primate hematology: neutrophil and reticulocyte count, hemoglobin, hematocrit, red blood cells; format: in vivo, cynomolgus monkey; conditions: for Female NHP Neutrophils: Table 39
# Description: LNP formulations, shown in Table 31 (above), were administered to non-human primates (NHP) (cynomolgus monkey) (n=2) as intravenous injection (IV). The NHP were administered a single modified mRNA IV dose of 0.5 mg/kg, 0.05 mg/kg or 0.005 mg/kg of G-CSF or EPO in a dose volume of 0.5 mL/kg. The NHPs were bled before dosing with the modified mRNA LNP formulations to determine protein expression in the serum and a baseline complete blood count. After administration with the G-CSF modified mRNA formulation the NHP were bled at 8, 24, 48 and 72 hours to determined protein expression. After administration with the EPO modified mRNA formulation the NHP were bled at 8, 24, 48, 72 hours and 7 days to determined protein expression.
# Samples collected from the NHPs after they were administered with G-CSF or EPO modified mRNA formulations were analyzed by ELISA to determine protein expression. Neutrophil and reticulocyte count was also determined pre-dose, 24 hours, 3 days, 7 days, 14 days and 18 days after administration of the modified G-CSF or EPO formulation.
# neutrophil count = test: Intravenous administration of lipoplexed G-CSF mRNA, neutrophil count; format: in vivo; conditions: mice IV, 50 ug RNA in 10% lipoplex at days 0, 2 and 4; day 5
# Description: Neutrophils were measured at days 1, 5 and 8. Controls included non-specific mammalian RNA or the formulation buffer alone (F.Buffer). The mice were bled at days 1, 5 and 8 to determine the effect of mRNA-encoded human G-CSF to increase neutrophil count. The dosing regimen is shown in Table 64 as are the resulting neutrophil counts (thousands/uL; K/uL).
# [3] = Female NHP, 0.5 mg/kg, 24 hours
molecule,measurement,setting,value
B1,Female NHP Serum Concentration,[1]; 8 hours,3289 pg/mL
same,Male NHP Serum Concentration,[1]; 8 hours,1722 pg/mL
same,Female NHP Serum Concentration,[1]; 48 hours,0 pg/mL
same,Male NHP Serum Concentration,[1]; 48 hours,0 pg/mL
same,Female NHP Serum Concentration,[1]; 72 hours,0 pg/mL
same,Male NHP Serum Concentration,[1]; 72 hours,0 pg/mL
same,Female NHP Serum Concentration,[1]; Pre-bleed,0 pg/mL
same,Male NHP Serum Concentration,[1]; Pre-bleed,0 pg/mL
same,time out to which protein expression was detectable,"[1]; NHP IV, LNP, 0.05 mg/kg",24 h
same,Hematocrit (HCT),"[2]; Female NHP, 0.005 mg/kg, 14/18 days",0.42 L/L
same,Hematocrit (HCT),"[2]; Female NHP, 0.005 mg/kg, 24 hours",0.42 L/L
same,Hematocrit (HCT),"[2]; Female NHP, 0.005 mg/kg, 3 days",0.41 L/L
same,Hematocrit (HCT),"[2]; Female NHP, 0.005 mg/kg, 7 days",0.42 L/L
same,Hematocrit (HCT),"[2]; Female NHP, 0.005 mg/kg, Pre-dose",0.42 L/L
same,Hematocrit (HCT),"[2]; Female NHP, 0.05 mg/kg, 14/18 days",0.4 L/L
same,Hematocrit (HCT),"[2]; Female NHP, 0.05 mg/kg, 24 hours",0.4 L/L
same,Hematocrit (HCT),"[2]; Female NHP, 0.05 mg/kg, 3 days",0.39 L/L
same,Hematocrit (HCT),"[2]; Female NHP, 0.05 mg/kg, 7 days",0.4 L/L
same,Hematocrit (HCT),"[2]; Female NHP, 0.05 mg/kg, Pre-dose",0.44 L/L
same,Hematocrit (HCT),"[2]; Female NHP, 0.5 mg/kg, 14/18 days",0.37 L/L
same,Hematocrit (HCT),[2]; [3],0.38 L/L
same,Red Blood Cells (RBC),[2]; [3],4.95 10^12/L
same,Hematocrit (HCT),"[2]; Female NHP, 0.5 mg/kg, 3 days",0.38 L/L
same,Hematocrit (HCT),"[2]; Female NHP, 0.5 mg/kg, 7 days",0.38 L/L
same,Hematocrit (HCT),"[2]; Female NHP, 0.5 mg/kg, Pre-dose",0.43 L/L
same,Hematocrit (HCT),"[2]; Male NHP, 0.005 mg/kg, 14/18 days",0.41 L/L
same,Hematocrit (HCT),"[2]; Male NHP, 0.005 mg/kg, 24 hours",0.4 L/L
same,Hematocrit (HCT),"[2]; Male NHP, 0.005 mg/kg, 3 days",0.4 L/L
same,Hematocrit (HCT),"[2]; Male NHP, 0.005 mg/kg, 7 days",0.39 L/L
same,Hematocrit (HCT),"[2]; Male NHP, 0.005 mg/kg, Pre-dose",0.42 L/L
same,Hematocrit (HCT),"[2]; Male NHP, 0.05 mg/kg, 14/18 days",0.44 L/L
same,Hematocrit (HCT),"[2]; Male NHP, 0.05 mg/kg, 24 hours",0.39 L/L
same,Hematocrit (HCT),"[2]; Male NHP, 0.05 mg/kg, 3 days",0.41 L/L
same,Hematocrit (HCT),"[2]; Male NHP, 0.05 mg/kg, 7 days",0.42 L/L
same,Hematocrit (HCT),"[2]; Male NHP, 0.05 mg/kg, Pre-dose",0.44 L/L
same,Hematocrit (HCT),"[2]; Male NHP, 0.5 mg/kg, 14/18 days",0.34 L/L
same,Hematocrit (HCT),"[2]; Male NHP, 0.5 mg/kg, 24 hours",0.37 L/L
same,Hematocrit (HCT),"[2]; Male NHP, 0.5 mg/kg, 3 days",0.39 L/L
same,Red Blood Cells (RBC),"[2]; Male NHP, 0.5 mg/kg, 3 days",1.91 10^12/L
same,Hematocrit (HCT),"[2]; Male NHP, 0.5 mg/kg, 7 days",0.39 L/L
same,Hematocrit (HCT),"[2]; Male NHP, 0.5 mg/kg, Pre-dose",0.46 L/L
same,neutrophils relative to pre-dose levels,"[2]; NHP IV LNP, all G-CSF groups",increase in neutrophils
same,Female NHP Neutrophils,"[2]; 0.005 mg/kg IV LNP, 14/18 days",0.057 10^12/L
same,Female NHP Neutrophils,"[2]; 0.005 mg/kg IV LNP, 24 hours",0.07 10^12/L
same,Female NHP Neutrophils,"[2]; 0.005 mg/kg IV LNP, 3 days",0 .054 10^12/L
same,Female NHP Neutrophils,"[2]; 0.005 mg/kg IV LNP, 7 days",0.066 10^12/L
same,Female NHP Neutrophils,"[2]; 0.005 mg/kg IV LNP, Pre-dose",0.06 10^12/L
same,Female NHP Neutrophils,"[2]; 0.05 mg/kg IV LNP, 14/18 days",0.06 10^12/L
same,Female NHP Neutrophils,"[2]; 0.05 mg/kg IV LNP, 24 hours",0.046 10^12/L
same,Female NHP Neutrophils,"[2]; 0.05 mg/kg IV LNP, 3 days",0.061 10^12/L
same,Female NHP Neutrophils,"[2]; 0.05 mg/kg IV LNP, 7 days",0.094 10^12/L
same,Female NHP Neutrophils,"[2]; 0.05 mg/kg IV LNP, Pre-dose",0.049 10^12/L
same,Female NHP Neutrophils,"[2]; 0.5 mg/kg IV LNP, 14/18 days",0.071 10^12/L
same,Female NHP Neutrophils,"[2]; 0.5 mg/kg IV LNP, 24 hours",0.046 10^12/L
same,Female NHP Neutrophils,"[2]; 0.5 mg/kg IV LNP, 3 days",0.017 10^12/L
same,Female NHP Neutrophils,"[2]; 0.5 mg/kg IV LNP, 7 days",0.021 10^12/L
same,Female NHP Neutrophils,"[2]; 0.5 mg/kg IV LNP, Pre-dose",0.055 10^12/L
same,increase in neutrophil count above control,neutrophil count,four to five fold increase
